We go through two molecules from patent US20210054097A1 (Novo Nordisk, published 2021).

Ends that are not written are not given here.

Holding throughout (test): peptide ELISA
Assay [1] deals with T1, FX activation peptide 12-mer ITWKPYDAADLD (human).
T1 peptide: ITWKPYDAADLD-biotin
In short, it runs like this:
(§1)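 Nanobodies (FLAG-tagged) or IgG antibodies, 2 μg/mL, incubated 1 h on C-terminally biotinylated peptide captured via streptavidin, washing buffer pH 8.60 containing CaCl₂ and Tween 20. Read-out: HRP-conjugated secondary antibody with TMB colour development.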

Assay [2] has as its target T2, FX activation peptide 12-mer FNQTQPERGDNN (human).
T2 peptide: FNQTQPERGDNN-biotin
In short, it runs like this: as §1

In assay [3] the target is T3, FX activation peptide 12-mer DLLDFNQTQPER (human).
T3 peptide: DLLDFNQTQPER-biotin
In short, it runs like this: as §1

Assay [4] has as its target T4, FX activation peptide 12-mer SITWKPYDAADL (human).
T4 peptide: SITWKPYDAADL-biotin
In a few lines:
as §1

Assay [5] deals with T5, FX activation peptide 12-mer SGEAPDSITWKP (human).
T5 peptide: SGEAPDSITWKP-biotin
In short, it runs like this: as §1

Assay [6] concerns the target T6, FX activation peptide 12-mer YDAADLDPTENP (human).
T6 peptide: YDAADLDPTENP-biotin
In short, it runs like this:
as §1

Assay [7] has as its target T7, FX activation peptide 12-mer TQPERGDNNLTR (human).
T7 peptide: TQPERGDNNLTR-biotin
In short, it runs like this:
as §1

The target of assay [8] is T8, FX activation peptide 12-mer QATSSSGEAPDS (human).
T8 peptide: QATSSSGEAPDS-biotin
In a few lines: as §1

For assay [9], the target named is T9, FX activation peptide 12-mer KPYDAADLDPTE (human).
T9 peptide: KPYDAADLDPTE-biotin
In a few lines:
as §1

The target in assay [10] is T10, FX activation peptide 12-mer SSSGEAPDSITW (human).
T10 peptide: SSSGEAPDSITW-biotin
In a few lines:
as §1

The target of assay [11] is T11, FX activation peptide 12-mer DAADLDPTENPF (human).
T11 peptide: DAADLDPTENPF-biotin
In a few lines: as §1

Assay [12] has as its target T12, FX activation peptide 12-mer AADLDPTENPFD (human).
T12 peptide: AADLDPTENPFD-biotin
In a few lines:
as §1

The target of assay [13] is T13, FX activation peptide 12-mer LDPTENPFDLLD (human).
T13 peptide: LDPTENPFDLLD-biotin
In short, it runs like this:
as §1

Assay [14] deals with T14, FX activation peptide 12-mer ATSSSGEAPDSI (human).
T14 peptide: ATSSSGEAPDSI-biotin
In short, it runs like this:
as §1

Assay [15] addresses T15, FX activation peptide 12-mer LDFNQTQPERGD (human).
T15 peptide: LDFNQTQPERGD-biotin
In short, it runs like this:
as §1

The target of assay [16] is T16, FX activation peptide 12-mer WKPYDAADLDPT (human).
T16 peptide: WKPYDAADLDPT-biotin
In short, it runs like this: as §1

The target in assay [17] is T17, FX activation peptide 12-mer TWKPYDAADLDP (human).
T17 peptide: TWKPYDAADLDP-biotin
In short, it runs like this:
as §1

Assay [18] concerns the target T18, FX activation peptide 12-mer PDSITWKPYDAA (human).
T18 peptide: PDSITWKPYDAA-biotin
In short, it runs like this:
as §1

In assay [19] the target is T19, FX activation peptide 12-mer TSSSGEAPDSIT (human).
T19 peptide: TSSSGEAPDSIT-biotin
In short, it runs like this: as §1

Assay [20] has as its target T20, FX activation peptide 12-mer SSGEAPDSITWK (human).
T20 peptide: SSGEAPDSITWK-biotin
In a few lines: as §1

Assay [21] deals with T21, FX activation peptide 12-mer ENPFDLLDFNQT (human).
T21 peptide: ENPFDLLDFNQT-biotin
In short, it runs like this:
as §1

The target in assay [22] is T22, FX activation peptide 12-mer DSITWKPYDAAD (human).
T22 peptide: DSITWKPYDAAD-biotin
In short, it runs like this: as §1

B1: Nb 730C03 (VHH)
VHH: EVQLVESGGGVVQPGGSLRLSCVASGFTFSDYAMSWVRQAPGKGLEWVSGITSGSGRTYYADSVKGRFTISRDNSKNTVYLQMNSLRPEDTALYYCAAAILRGYRKTYDYWGQGTLVTVSS
notes: monovalent Nanobody; also called Nb 730003; not shown: C-terminal FLAG3 and HIS6 tag
With B1, the “ELISA signal relative to background” value in assay [1] is 1.2; in assay [2], 1.16; in assay [3], 1.18; in assay [4], 1.18; in [5], 1.18; in assay [6], 1.28. In addition, the “ELISA signal relative to background” value in assay [7] was 1.06; in assay [8] it was 1.14; in assay [9], 1.17; in assay [10], 1.21; in [11] it was 1.24; in assay [12] it was 1.21. Besides, the “ELISA signal relative to background” value in [13] was 1.3; in assay [14], 1.19; in [15] it was 1.14; in [16], 1.14; in assay [17], 1.26; in assay [18], 1.24. Further, the “ELISA signal relative to background” value in assay [19] stood at 1.2; in assay [20], 1.22; in assay [21], 6.57; in assay [22], 1.22.

B2: Nb 729C08 (VHH)
VHH: EVQLVESGGGVVQPGGSLRLSCAASGFTFSDYAMSWVRQAPGKGLEWVSGITGGGRTYYADSVKGRFTISRDNSKNTLYLQMNSLRPEDTALYYCAAAILTRTRRTYDYWGQGTLVTVSS
notes: monovalent Nanobody; also called Nb 729008; not shown: C-terminal FLAG3 and HIS6 tag
As for B2, the “ELISA signal relative to background” value in [1] is 1.06; in assay [2], 1.08; in [3], 1.22; in assay [4] it was 1.11; in assay [5], 1.07; in [6] it was 1.09. The “ELISA signal relative to background” value in [7] was 1.37; in assay [8] it was 1.12; in assay [9], 1.1; in assay [10], 1.1; in [11] it was 1.18; in assay [12], 1.17. The “ELISA signal relative to background” value in assay [14] stood at 1.13; in [15], 1.12; in assay [16] it was 1.08; in [17], 1.17; in assay [18], 1.17; in assay [19] it was 1.06. Further, the “ELISA signal relative to background” value in assay [20] turned out to be 1.06; in assay [21], 8.06; in assay [22], 1.09.
